For the series the following is noted: Homo sapiens; pH 7.4; Thermal; CD; Phosphate buffer saline; whole UniProt chain shown.

B1: SH2 domain-containing protein 1A wild type, O60880 (protein)
chain: MDAVAVYHGKISRETGEKLLLATGLDGSYLLRDSESVPGVYCLCVLYHGYIYTYRVSQTETGSWSAETAPGVHKRYFRKIKNLISAFQKPDQGIVIPLQYPVEKKSSARSTQGTTGIREDPDVCLKAP
For orientation: Tm means the temperature at which the thermal transition is half complete. Regarding B1, the Tm stood at 57.8 °C.

Values taken from FireProtDB (doi:10.1021/bi034798l).
